According to PMC6101370:

T1: histidine kinase EnvZ from Escherichia coli (Escherichia coli) (UniProt P0AEJ4)
T1 sequence (P0AEJ4 whole entry, looked up): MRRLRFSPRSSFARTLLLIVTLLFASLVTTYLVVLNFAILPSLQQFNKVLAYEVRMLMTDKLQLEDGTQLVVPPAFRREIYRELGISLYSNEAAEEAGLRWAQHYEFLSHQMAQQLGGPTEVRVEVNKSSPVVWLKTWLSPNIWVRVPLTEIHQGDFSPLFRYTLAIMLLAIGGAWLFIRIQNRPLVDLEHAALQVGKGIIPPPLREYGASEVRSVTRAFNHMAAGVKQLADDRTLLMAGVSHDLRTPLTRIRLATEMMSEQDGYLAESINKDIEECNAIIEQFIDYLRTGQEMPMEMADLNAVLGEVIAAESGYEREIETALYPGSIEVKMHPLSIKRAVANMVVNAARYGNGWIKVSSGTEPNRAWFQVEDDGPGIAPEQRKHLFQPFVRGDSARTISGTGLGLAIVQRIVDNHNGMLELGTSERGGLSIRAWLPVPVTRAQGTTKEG


Target: T1, histidine kinase EnvZ from Escherichia coli (Escherichia coli)

| Binder | in vitro phosphotransfer rate from EnvZ, ratio v (mutant) / v (w.t.) |
| --- | --- |
| Spo0F M55L (natural protein) MMNEKILIVDDQYGIRILLNEVFNKEGYQTFQAANGLQALDIVTKERPDLVLLDLKIPGMDGIEILKRMKVIDENIRVIIMTAYGELDMIQESKELGALTHFAKPFDIDEIRDAVKKYLPLKSN | 1 |
| Spo0F I108L (natural protein) MMNEKILIVDDQYGIRILLNEVFNKEGYQTFQAANGLQALDIVTKERPDLVLLDMKIPGMDGIEILKRMKVIDENIRVIIMTAYGELDMIQESKELGALTHFAKPFDLDEIRDAVKKYLPLKSN | 1 |
